These results are taken from US20230240981A1 (THE REGENTS OF THE UNIVERSITY OF CALIFORNIA, priority 2020, published 2023).

Series [1] can be described thus: MALDI-TOF mass spectrum of native and microneedle-released insulin/glucagon. It is filed as physicochemical. The settings on record: throughout the polymerization process.
The conditions of series [2]: physiological pH.

“insulin: Human recombinant insulin purchased from Thermo Fisher Scientific”: in series [1], the “integrity of protein released from microneedles” value is “stayed intact”. For the same substance, in series [2], the solubility result is on record as “high solubility”.
